The record followed here is PMC11838199.

In this experiment the target is C12ORF57-FLAG (human) (UniProt Q99622). Briefly: co-IP.
Chain of UniProt Q99622 (Q99622 whole entry): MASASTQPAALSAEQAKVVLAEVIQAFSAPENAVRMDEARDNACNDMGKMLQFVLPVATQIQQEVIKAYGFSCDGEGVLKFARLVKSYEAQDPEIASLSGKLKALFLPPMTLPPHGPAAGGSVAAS

With “CAMK4 lacking the calmodulin binding domain (NCB) (from UniProt Q16566 1-473) (enzyme)”, the change in CAMK4 co-precipitated with C12ORF57-FLAG, against wild type CAMK4 is -6.13%. On to “CAMK4 lacking the autoinhibitory domain (NAI) (from UniProt Q16566 1-473) (enzyme)”, for which the change in CAMK4 co-precipitated with C12ORF57-FLAG, against wild type CAMK4 was -65.8%.
